Assay results from PMC12666738.

T1: GST-tagged C-terminal domain of SALM1, Q9ULH4
T1 chain: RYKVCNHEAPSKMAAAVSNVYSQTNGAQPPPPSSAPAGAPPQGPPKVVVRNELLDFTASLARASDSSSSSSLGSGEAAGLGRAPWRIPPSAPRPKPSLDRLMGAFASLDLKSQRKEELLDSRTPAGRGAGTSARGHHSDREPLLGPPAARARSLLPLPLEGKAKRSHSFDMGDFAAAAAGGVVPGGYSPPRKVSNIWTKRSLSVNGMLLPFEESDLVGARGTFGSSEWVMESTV

T2: GST-tagged C-terminal domain of Nrxn1β, Q63373
T2 chain: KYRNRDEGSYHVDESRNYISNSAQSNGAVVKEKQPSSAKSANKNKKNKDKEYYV

T3: GST-tagged C-terminal domain of CNTNAP2, Q9UHC6
T3 chain: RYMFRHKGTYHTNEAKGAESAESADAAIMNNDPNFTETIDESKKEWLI


Assays:
[1] = target: mRFP-tagged CASK I672V (human) (UniProt O14936); test: co-IP; HEK293T cells cotransfected, lysed in RIPA buffer 24 h after transfection; mRFP-tagged CASK precipitated with magnetic RFP-Trap beads, 2 h at 4°C, five washes in RIPA; Western blot
[2] = target: T1, GST-tagged C-terminal domain of SALM1, …; test: pull-down; conditions: chain shown with the change; n = 4; His6-signals normalized to GST-signals derived from the same blot; parent: est. 0.85; read off a plot
[3] = target: T2, GST-tagged C-terminal domain of Nrxn1β, …; test: pull-down; conditions: chain shown with the change; n = 4; His6-signals normalized to GST-signals derived from the same blot; parent: est. 2.9; read off a plot
[4] = target: T3, GST-tagged C-terminal domain of …; test: pull-down; conditions: chain shown with the change; n = 4; His6-signals normalized to GST-signals derived from the same blot; parent: est. 3.1; read off a plot

| reduction of bound Nrxn1β against CASK WT [1] [%] | response [2] | response [3] | response [4] | Molecule |
| --- | --- | --- | --- | --- |
| 50 | – | – | – | HA-tagged Neurexin-1β (from UniProt Q63373 47-468) (natural protein) |
| – | 0.15 | 0.9 | 0.45 | His6-SUMO-tagged CASK PSG supramodule WT, O14936-2 Y723C (protein) MADDDVLFEDVYELCEVIGKGPFSVVRRCINRETGQQFAVKIVDVAKFTSSPGLSTEDLKREASICHMLKHPHIVELLETYSSDGMLYMVFEFMDGADLCFEIVKRADAGFVYSEAVASHYMRQILEALRYCHDNNIIHRDVKPHCVLLASKENSAPVKLGGFGVAIQLGESGLVAGGRVGTPHFMAPEVVKREPYGKPVDVWGCGVILFILLSGCLPFYGTKERLFEGIIKGKYKMNPRQWSHISESAKDLVRRMLMLDPAERITVYEALNHPWLKERDRYAYKIHLPETVEQLRKFNARRKLKGAVLAAVSSHKFNSFYGDPPEELPDFSEDPTSSGLLAAERAVSQVLDSLEEIHALTDCSEKDLDFLHSVFQDQHLHTLLDLYDKINTKSSPQIRNPPSDAVQRAKEVLEEISCYPENNDAKELKRILTQPHFMALLQTHDVVAHEVYSDEALRVTPPPTSPYLNGDSPESANGDMDMENVTRVRLVQFQKNTDEPMGITLKMNELNHCIVARIMHGGMIHRQGTLHVGDEIREINGISVANQTVEQLQKMLREMRGSITFKIVPSYRTQSSSCERDSPSTSRQSPANGHSSTNNSVSDLPSTTQPKGRQIYVRAQFEYDPAKDDLIPCKEAGIRFRVGDIIQIISKDDHNWWQGKLENSKNGTAGLIPSPELQEWRVACIAMEKTKQEQQASCTWFGKKKKQYKDKYLAKHNADLVTCEEVVKLPAFKRKTLVLLGAHGVGRRHIKNTLITKHPDRFAYPIPHTTRPPKKDEENGKNYYFVSHDQMMQDISNNEYLEYGSHEDAMYGTKLETIRKIHEQGLIAILDVEPQALKVLRTAEFAPFVVFIAAPTITPGLNEDESLQRLQKESDILQRTYAHYFDLTIINNEIDETIRHLEEAVELVCTAPQWVPVSWVY |
| – | 0.15 | 1 | 0.45 | His6-SUMO-tagged CASK PSG supramodule WT, O14936-2 P673L (protein) MADDDVLFEDVYELCEVIGKGPFSVVRRCINRETGQQFAVKIVDVAKFTSSPGLSTEDLKREASICHMLKHPHIVELLETYSSDGMLYMVFEFMDGADLCFEIVKRADAGFVYSEAVASHYMRQILEALRYCHDNNIIHRDVKPHCVLLASKENSAPVKLGGFGVAIQLGESGLVAGGRVGTPHFMAPEVVKREPYGKPVDVWGCGVILFILLSGCLPFYGTKERLFEGIIKGKYKMNPRQWSHISESAKDLVRRMLMLDPAERITVYEALNHPWLKERDRYAYKIHLPETVEQLRKFNARRKLKGAVLAAVSSHKFNSFYGDPPEELPDFSEDPTSSGLLAAERAVSQVLDSLEEIHALTDCSEKDLDFLHSVFQDQHLHTLLDLYDKINTKSSPQIRNPPSDAVQRAKEVLEEISCYPENNDAKELKRILTQPHFMALLQTHDVVAHEVYSDEALRVTPPPTSPYLNGDSPESANGDMDMENVTRVRLVQFQKNTDEPMGITLKMNELNHCIVARIMHGGMIHRQGTLHVGDEIREINGISVANQTVEQLQKMLREMRGSITFKIVPSYRTQSSSCERDSPSTSRQSPANGHSSTNNSVSDLPSTTQPKGRQIYVRAQFEYDPAKDDLIPCKEAGIRFRVGDIIQIISKDDHNWWQGKLENSKNGTAGLILSPELQEWRVACIAMEKTKQEQQASCTWFGKKKKQYKDKYLAKHNADLVTYEEVVKLPAFKRKTLVLLGAHGVGRRHIKNTLITKHPDRFAYPIPHTTRPPKKDEENGKNYYFVSHDQMMQDISNNEYLEYGSHEDAMYGTKLETIRKIHEQGLIAILDVEPQALKVLRTAEFAPFVVFIAAPTITPGLNEDESLQRLQKESDILQRTYAHYFDLTIINNEIDETIRHLEEAVELVCTAPQWVPVSWVY |
| – | 0.7 | 0.9 | 1.5 | His6-SUMO-tagged CASK PSG supramodule WT, O14936-2 G521V (protein) MADDDVLFEDVYELCEVIGKGPFSVVRRCINRETGQQFAVKIVDVAKFTSSPGLSTEDLKREASICHMLKHPHIVELLETYSSDGMLYMVFEFMDGADLCFEIVKRADAGFVYSEAVASHYMRQILEALRYCHDNNIIHRDVKPHCVLLASKENSAPVKLGGFGVAIQLGESGLVAGGRVGTPHFMAPEVVKREPYGKPVDVWGCGVILFILLSGCLPFYGTKERLFEGIIKGKYKMNPRQWSHISESAKDLVRRMLMLDPAERITVYEALNHPWLKERDRYAYKIHLPETVEQLRKFNARRKLKGAVLAAVSSHKFNSFYGDPPEELPDFSEDPTSSGLLAAERAVSQVLDSLEEIHALTDCSEKDLDFLHSVFQDQHLHTLLDLYDKINTKSSPQIRNPPSDAVQRAKEVLEEISCYPENNDAKELKRILTQPHFMALLQTHDVVAHEVYSDEALRVTPPPTSPYLNGDSPESANGDMDMENVTRVRLVQFQKNTDEPMGITLKMNELNHCIVARIMHVGMIHRQGTLHVGDEIREINGISVANQTVEQLQKMLREMRGSITFKIVPSYRTQSSSCERDSPSTSRQSPANGHSSTNNSVSDLPSTTQPKGRQIYVRAQFEYDPAKDDLIPCKEAGIRFRVGDIIQIISKDDHNWWQGKLENSKNGTAGLIPSPELQEWRVACIAMEKTKQEQQASCTWFGKKKKQYKDKYLAKHNAVFDQLDLVTYEEVVKLPAFKRKTLVLLGAHGVGRRHIKNTLITKHPDRFAYPIPHTTRPPKKDEENGKNYYFVSHDQMMQDISNNEYLEYGSHEDAMYGTKLETIRKIHEQGLIAILDVEPQALKVLRTAEFAPFVVFIAAPTITPGLNEDESLQRLQKESDILQRTYAHYFDLTIINNEIDETIRHLEEAVELVCTAPQWVPVSWVY |
